In patent publication US20090098111:

What was measured:
[1] = system: GST-XtopBP1 (972-1279) ΔRQLQ
[2] = system: GST-XtopBP1 (972-1279) ΔWDDP
[3] = system: GST-XtopBP1 (972-1279)-W1138R
[4] = system: His6-XtopBP1 (full-length)
[5] = system: His6-XtopBP1-W1138R (full-length)

Xatr (endogenous Xenopus ATR in egg extracts), sequence (chain, as listed by the source): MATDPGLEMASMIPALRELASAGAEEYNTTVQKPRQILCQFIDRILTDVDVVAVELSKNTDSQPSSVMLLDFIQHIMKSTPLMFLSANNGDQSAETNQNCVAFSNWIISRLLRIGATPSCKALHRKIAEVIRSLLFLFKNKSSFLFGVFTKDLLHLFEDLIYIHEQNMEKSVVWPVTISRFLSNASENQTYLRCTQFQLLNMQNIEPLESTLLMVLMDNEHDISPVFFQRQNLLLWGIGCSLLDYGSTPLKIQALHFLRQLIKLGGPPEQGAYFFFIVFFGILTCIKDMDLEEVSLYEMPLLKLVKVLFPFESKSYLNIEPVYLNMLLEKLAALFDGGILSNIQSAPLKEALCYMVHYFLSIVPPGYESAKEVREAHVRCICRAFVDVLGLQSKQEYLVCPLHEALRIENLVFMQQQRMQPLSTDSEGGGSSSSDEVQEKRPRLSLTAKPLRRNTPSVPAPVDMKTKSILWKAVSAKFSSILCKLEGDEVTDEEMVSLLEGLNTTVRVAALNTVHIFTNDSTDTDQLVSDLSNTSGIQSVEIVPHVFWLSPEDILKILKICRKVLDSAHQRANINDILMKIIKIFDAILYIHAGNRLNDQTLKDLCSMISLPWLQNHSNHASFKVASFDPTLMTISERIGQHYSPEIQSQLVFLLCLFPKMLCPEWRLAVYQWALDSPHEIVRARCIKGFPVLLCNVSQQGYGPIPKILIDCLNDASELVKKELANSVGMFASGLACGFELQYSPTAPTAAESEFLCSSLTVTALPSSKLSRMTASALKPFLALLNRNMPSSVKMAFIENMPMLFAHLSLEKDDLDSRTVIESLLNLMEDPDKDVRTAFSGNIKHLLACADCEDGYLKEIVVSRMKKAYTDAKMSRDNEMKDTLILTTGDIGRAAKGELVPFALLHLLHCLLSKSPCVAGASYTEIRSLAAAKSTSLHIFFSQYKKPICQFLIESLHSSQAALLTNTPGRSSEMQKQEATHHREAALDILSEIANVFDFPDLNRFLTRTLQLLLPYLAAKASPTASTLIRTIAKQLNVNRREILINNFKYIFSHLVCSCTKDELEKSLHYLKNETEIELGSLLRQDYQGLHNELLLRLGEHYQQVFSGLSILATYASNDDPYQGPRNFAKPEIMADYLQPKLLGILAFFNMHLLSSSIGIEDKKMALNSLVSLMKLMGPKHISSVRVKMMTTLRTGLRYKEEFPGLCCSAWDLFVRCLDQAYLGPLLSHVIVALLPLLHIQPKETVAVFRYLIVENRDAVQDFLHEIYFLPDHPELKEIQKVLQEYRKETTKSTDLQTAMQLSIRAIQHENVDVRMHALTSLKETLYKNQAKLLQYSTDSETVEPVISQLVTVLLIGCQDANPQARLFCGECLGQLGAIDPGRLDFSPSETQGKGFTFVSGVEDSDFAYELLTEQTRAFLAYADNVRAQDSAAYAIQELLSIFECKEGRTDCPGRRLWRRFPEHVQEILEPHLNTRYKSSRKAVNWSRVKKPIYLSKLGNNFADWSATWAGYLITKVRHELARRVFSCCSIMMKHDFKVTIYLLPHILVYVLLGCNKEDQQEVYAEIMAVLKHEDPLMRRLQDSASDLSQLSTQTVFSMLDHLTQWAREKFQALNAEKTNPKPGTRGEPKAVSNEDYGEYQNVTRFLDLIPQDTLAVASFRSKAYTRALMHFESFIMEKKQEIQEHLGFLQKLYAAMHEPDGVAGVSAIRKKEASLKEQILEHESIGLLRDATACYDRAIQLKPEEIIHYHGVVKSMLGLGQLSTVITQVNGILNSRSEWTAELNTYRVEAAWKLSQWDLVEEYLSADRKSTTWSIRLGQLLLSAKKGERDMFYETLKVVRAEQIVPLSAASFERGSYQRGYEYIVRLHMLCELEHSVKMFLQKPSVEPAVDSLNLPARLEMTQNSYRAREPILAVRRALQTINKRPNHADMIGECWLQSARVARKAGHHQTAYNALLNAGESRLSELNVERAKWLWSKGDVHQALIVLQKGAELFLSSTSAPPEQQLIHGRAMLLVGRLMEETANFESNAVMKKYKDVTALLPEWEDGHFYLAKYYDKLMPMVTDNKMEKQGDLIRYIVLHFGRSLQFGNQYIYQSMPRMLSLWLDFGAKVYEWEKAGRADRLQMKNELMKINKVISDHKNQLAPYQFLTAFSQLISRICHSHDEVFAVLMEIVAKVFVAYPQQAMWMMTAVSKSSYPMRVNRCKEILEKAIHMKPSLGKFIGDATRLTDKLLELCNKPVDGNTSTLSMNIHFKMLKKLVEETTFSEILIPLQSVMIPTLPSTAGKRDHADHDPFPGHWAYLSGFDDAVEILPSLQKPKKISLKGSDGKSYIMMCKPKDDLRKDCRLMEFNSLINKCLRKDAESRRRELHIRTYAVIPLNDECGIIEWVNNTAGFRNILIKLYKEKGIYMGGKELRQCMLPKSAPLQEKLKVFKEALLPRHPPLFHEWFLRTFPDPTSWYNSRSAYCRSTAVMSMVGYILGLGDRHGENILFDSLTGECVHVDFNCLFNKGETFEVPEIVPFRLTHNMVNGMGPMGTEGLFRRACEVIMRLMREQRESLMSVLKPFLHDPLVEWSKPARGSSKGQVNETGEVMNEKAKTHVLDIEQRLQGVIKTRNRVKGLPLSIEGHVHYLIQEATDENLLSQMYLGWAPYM
GST-XtopBP1 (1197-1513), sequence (chain, as listed by the source): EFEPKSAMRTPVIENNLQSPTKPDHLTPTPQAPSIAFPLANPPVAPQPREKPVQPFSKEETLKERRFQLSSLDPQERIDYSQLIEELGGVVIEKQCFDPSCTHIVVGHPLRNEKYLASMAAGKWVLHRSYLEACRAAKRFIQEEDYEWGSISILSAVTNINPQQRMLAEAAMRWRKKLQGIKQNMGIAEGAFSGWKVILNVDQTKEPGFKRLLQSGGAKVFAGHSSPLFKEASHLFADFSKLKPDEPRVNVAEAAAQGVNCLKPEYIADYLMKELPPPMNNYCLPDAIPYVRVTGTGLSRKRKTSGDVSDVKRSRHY
His6-XtopBP1 (full-length), sequence (chain, as listed by the source): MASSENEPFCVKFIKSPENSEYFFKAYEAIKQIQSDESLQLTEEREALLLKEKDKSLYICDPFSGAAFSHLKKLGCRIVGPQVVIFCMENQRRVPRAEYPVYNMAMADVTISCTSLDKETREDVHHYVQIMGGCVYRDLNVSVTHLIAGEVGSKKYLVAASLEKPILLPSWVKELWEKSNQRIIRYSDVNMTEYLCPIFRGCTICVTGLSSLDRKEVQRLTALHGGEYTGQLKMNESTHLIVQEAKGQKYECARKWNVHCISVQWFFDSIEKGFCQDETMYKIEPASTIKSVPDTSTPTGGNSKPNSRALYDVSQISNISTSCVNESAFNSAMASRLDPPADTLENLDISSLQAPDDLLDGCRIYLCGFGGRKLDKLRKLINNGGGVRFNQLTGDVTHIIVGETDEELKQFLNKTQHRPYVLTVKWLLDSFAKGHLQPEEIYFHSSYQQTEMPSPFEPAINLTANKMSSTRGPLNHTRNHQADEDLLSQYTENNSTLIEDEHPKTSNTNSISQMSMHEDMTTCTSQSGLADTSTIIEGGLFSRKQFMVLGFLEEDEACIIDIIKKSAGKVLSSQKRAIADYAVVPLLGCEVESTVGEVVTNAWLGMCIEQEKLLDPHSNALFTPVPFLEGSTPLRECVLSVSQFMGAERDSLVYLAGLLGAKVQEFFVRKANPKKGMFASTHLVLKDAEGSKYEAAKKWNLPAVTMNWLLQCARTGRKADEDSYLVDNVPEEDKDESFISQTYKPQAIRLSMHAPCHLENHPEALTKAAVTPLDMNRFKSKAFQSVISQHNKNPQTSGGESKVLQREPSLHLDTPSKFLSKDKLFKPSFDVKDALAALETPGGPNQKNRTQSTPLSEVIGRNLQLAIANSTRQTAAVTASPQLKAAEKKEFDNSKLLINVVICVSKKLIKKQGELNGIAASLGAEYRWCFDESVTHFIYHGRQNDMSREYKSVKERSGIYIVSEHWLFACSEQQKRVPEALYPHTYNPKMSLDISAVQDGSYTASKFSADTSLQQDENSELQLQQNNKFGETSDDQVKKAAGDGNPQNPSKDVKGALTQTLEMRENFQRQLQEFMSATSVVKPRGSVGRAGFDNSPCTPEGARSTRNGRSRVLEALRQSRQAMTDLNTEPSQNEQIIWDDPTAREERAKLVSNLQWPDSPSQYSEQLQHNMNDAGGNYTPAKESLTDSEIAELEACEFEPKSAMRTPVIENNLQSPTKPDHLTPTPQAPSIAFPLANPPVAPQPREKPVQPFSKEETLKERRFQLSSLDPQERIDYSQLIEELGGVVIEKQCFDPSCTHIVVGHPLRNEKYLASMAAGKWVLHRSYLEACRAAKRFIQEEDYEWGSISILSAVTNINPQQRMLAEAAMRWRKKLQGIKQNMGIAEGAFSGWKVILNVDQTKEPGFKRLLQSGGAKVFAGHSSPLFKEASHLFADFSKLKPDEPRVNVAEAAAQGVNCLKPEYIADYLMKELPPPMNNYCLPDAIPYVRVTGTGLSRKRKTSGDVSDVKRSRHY
GST-XtopBP1 (972-1279)-W1138R, sequence (chain, as listed by the source W1138R): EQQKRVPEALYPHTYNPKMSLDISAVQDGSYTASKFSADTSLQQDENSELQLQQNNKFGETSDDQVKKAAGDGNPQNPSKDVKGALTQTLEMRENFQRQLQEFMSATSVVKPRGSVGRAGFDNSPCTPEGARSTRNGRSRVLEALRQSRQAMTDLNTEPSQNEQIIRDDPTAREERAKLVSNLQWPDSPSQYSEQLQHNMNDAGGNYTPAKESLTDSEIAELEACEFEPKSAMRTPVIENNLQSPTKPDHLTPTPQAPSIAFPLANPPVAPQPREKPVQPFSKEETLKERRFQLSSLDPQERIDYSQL
GST-XtopBP1 (972-1279), sequence (chain, as listed by the source): as the sequence (chain, as listed by the source W1138R) above, with R167W counted along it

Substance: Xatr (endogenous Xenopus ATR in egg extracts)
- phosphorylation of 35S-Xchk1 in egg extracts (electrophoretic mobility) (GST-XtopBP1 (1197-1513)): the GST-XtopBP1 (1197-1513) fragment, which does not activate Xatr, did not induce any phosphorylation of Xchk1 in egg extracts
- phosphorylation of 35S-Xchk1 in egg extracts (electrophoretic mobility) [1]: none of the ΔRQLQ, ΔWDDP, or W1138R mutants of the 972-1279 fragment could induce ectopic activation of Xchk1 in these extracts
- phosphorylation of 35S-Xchk1 in egg extracts (electrophoretic mobility) [2]: none of the ΔRQLQ, ΔWDDP, or W1138R mutants of the 972-1279 fragment could induce ectopic activation of Xchk1 in these extracts
- phosphorylation of 35S-Xchk1 in egg extracts (electrophoretic mobility) [3]: none of the ΔRQLQ, ΔWDDP, or W1138R mutants of the 972-1279 fragment could induce ectopic activation of Xchk1 in these extracts
- phosphorylation of 35S-Xchk1 in egg extracts (electrophoretic mobility) (GST-XtopBP1 (972-1279)): the 972-1279 fragment could elicit a very robust phosphorylation of Xchk1
- checkpoint-dependent phosphorylation of Xchk1 in XtopBP1-depleted egg extracts with aphidicolin [4]: addition of wild-type His6-XtopBP1 to the XtopBP1-depleted extract was able to rescue the phosphorylation of Xchk1 fully
- checkpoint-dependent phosphorylation of Xchk1 in XtopBP1-depleted egg extracts with aphidicolin [5]: the W1138R mutant could not restore the phosphorylation of Xchk1
